Numbering of substitutions follows the chain as printed.

First the molecules themselves.
B1: mouse anti-hGPRC5D antibody mu-169 (antibody, V domains shown)
VH: EVKLVESGGGLVKPGASLKLSCAASGFTFSNYGMSWVRQTSDKRLEWVASISSGGGRIYYPDNVKGRFTISRENAKNTLYLQMSSLKSEDTALYYCTRHAMDNWGQGTSVIVSS
VL: QIVLTQSPAIMSASPGEKVTMTCSASSSVSNMYWYQQKSGTSPKRWIYDTSKLASGVPARFSGSGSGTSYSLTISSMEAEDASTYYCQQWSSNPLTFGAGTTLELK
notes: Tested as subcloned hybridoma culture supernatant
B2: mouse anti-hGPRC5D antibody mu-128 (antibody, V domains shown)
VH: DVQLVESGGGLVQPGGSRKVSCAASGFTFSSFGMHWVRQAPEKGLEWVAYISRGSSTIYYADTVKGRFTISRDNPKNTLFLQMTSLRSEDTAMYYCARSGYGSSSYYFDYWGQGTTLTVSS
VL: ENVLTQSPAIMSASPREKVTMTCRASSSIRSSYLHWYQQKSGASPKLWIYSTSNLASGVPARFSGSGSGTSYSLTISSVEAEDAATYYCQQFSGYPLTFGGGTKLEIK
notes: as for B1
B3: mouse anti-hGPRC5D antibody mu-131 (antibody, V domains shown)
VH: EVQLQQSGPELVKPGASVKMSCKASGYTFTNYVMHWVKQKPGQGLEWIGYFNPYNDGTNYNEKFKGKATLTSDKSSNTAYMELSSLTSEDSAVYYCARGGVRRYFDVWGAGTTVTVSS
VL: DIQMTQSPSSLSASLGERVSLTCRASQDIGSNLNWLQLGPDGTIKRLIYATFSLDSGVPKRFSGSRSGSDYSLTISSLESEDFVDYYCQQYANFPPTFGGGTKLEIK
notes: as for B1
B4: mouse anti-hGPRC5D antibody mu-105 (antibody, V domains shown)
VH: EVQLQQSGPELVKPGASVKMSCKASGYTFTDYYMNWVKQSHGKSLEWIGYIYPNNGGTGYNQRFKGKATLTADKSSSTAYMELRSLTSEDSAVYYCARWGGTRLGYYAMDYWGQGTSVTVSS
VL: DIVMTQSQKFMSTSVGDRVSVTCKASQNVGTNVVWYQQKPGQSPKLLIYWASTRHTGVPDRFTGSGSGTDFTLTISNVQSEDLADYFCQQYSRYPYTFGGGTKLEIK
notes: as for B1
B5: mouse anti-hGPRC5D antibody mu-89 (antibody, V domains shown)
VH: EVQLVESGGDLVKPGGSLKLSCAASGFTFSSYGMSWVRQTPDKRLEWVATISSGGSYTYYPDSVKGRFTFSRDNAKNTLYLQMSSLKSEDTAMYYCVRQALRYHMDSWGQGTSVTVSS
VL: B4 VL with V34A, L46A, W50S, T53Y, H55Y, T56S, Y86F, S92Y, R93S, Y96W
notes: as for B1

T1 sequence (Q9NZD1 whole entry): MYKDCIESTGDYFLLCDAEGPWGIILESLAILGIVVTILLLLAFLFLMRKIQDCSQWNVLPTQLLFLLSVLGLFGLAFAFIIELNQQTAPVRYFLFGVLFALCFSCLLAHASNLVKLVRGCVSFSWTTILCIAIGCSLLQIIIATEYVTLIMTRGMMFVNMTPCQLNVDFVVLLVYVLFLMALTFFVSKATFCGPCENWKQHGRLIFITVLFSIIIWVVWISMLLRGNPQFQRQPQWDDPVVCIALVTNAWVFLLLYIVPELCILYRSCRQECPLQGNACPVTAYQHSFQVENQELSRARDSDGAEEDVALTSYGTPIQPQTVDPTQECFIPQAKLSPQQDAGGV

The assay has as its target T1, human GPRC5D protein (human, UniProt Q9NZD1 1-345).
T1 construct: also called hGPRC5D
Briefly: FACS, subclone supernatant on H929 cells. As for the experimental part: An H929 (i.e., NCI-H929) cell suspension at a cell concentration of 3× 10⁵ cells/mL was plated into a 96-well U-bottom plate at 100 μL/well. The subcloned cell culture supernatant was added at 100 μL/well or an equal volume of culture medium (hereinafter referred to as Medium) was added. The mixture was mixed well, and then incubated at 4° C. for 1 h. The cells were washed with PBS containing 2% (by volume) of FBS. An AlexaFluor488-conjugated goat anti-mouse IgG+IgM (H+L) antibody (Jackson Immuno Research, Cat. No.: 115-545-044) was added, and the mixture was incubated at 4° C. for 1 h. The cells were washed with PBS containing 2% (by volume) of FBS and then resuspended. Fluorescence signals were detected on a flow cytometer (Sartorius, IQue3). The binding of the mouse anti-hGPRC5D antibody to H929 cells was analyzed by the mean fluorescence intensity (MFI) of staining.
On to B1, for which the MFI came out at 59300 MFI.

For the molecule B2, the MFI came out at 15700 MFI.

In turn, B3 yielded an MFI of 12800 MFI.

Consider B4, for which the MFI amounted to 13200 MFI.

For the molecule B5, the MFI turned out to be 11900 MFI.

The values above are taken from patent publication US20260159583A1 (CHIA TAI TIANQING PHARMACEUTICAL GROUP, published 2026).
